Paper PMC9482650, “Quantitative fragmentomics allow affinity mapping of interactomes” (Nature Communications, 2022)

Biological target: T1, SNTG1, Q9NSN8
T1 sequence (Q9NSN8 52-150, limits assumed, looked up): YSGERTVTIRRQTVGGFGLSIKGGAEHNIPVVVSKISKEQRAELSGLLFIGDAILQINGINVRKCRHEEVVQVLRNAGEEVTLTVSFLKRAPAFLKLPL
Assay: holdup assay
Parameters: key: below the threshold = too weak to quantify, mostly under pKd 3.1 to 4
Conditions: plain residues with an end cap or a label only (N-terminal biotin on a linker: ttds)

Row | Binder | pKd
1 | QRQARSETLV [HPV59-E6, Q81964] | 4.17
2 | PRVKPQRSKV [PPP1R13L, Q8WUF5] | below the threshold

Biological target: T2, NHERF3_1, Q5T2W1
T2 sequence (Q5T2W1 4-100, limits assumed, looked up): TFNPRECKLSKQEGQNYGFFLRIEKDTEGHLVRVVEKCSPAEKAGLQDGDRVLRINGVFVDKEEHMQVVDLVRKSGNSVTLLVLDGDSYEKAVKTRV
Assay: holdup assay
Parameters: key: below the threshold = too weak to quantify, mostly under pKd 3.1 to 4
Conditions: plain residues with an end cap or a label only (N-terminal biotin on a linker: ttds)

Row | Binder | pKd
3 | QRQARSETLV [HPV59-E6, Q81964] | 4.82
4 | PRVKPQRSKV [PPP1R13L, Q8WUF5] | below the threshold

Biological target: LNX1_1, Q8TBB1
Sequence (Q8TBB1 261-371): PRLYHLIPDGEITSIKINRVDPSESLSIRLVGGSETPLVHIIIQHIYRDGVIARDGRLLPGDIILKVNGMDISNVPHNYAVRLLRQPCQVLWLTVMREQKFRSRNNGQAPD
Assay: holdup assay
Parameters: key: below the threshold = too weak to quantify, mostly under pKd 3.1 to 4
Conditions: plain residues with an end cap or a label only (N-terminal biotin on a linker: ttds)

Row | Binder | pKd
5 | QRQARSETLV [HPV59-E6, Q81964] | below the threshold
6 | PRVKPQRSKV [PPP1R13L, Q8WUF5] | below the threshold

Biological target: NHERF2_2, Q15599
Sequence (Q15599 142-238): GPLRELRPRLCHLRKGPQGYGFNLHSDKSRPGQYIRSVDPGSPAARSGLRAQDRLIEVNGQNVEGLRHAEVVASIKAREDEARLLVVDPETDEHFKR
Assay: holdup assay
Parameters: key: below the threshold = too weak to quantify, mostly under pKd 3.1 to 4
Conditions: plain residues with an end cap or a label only (N-terminal biotin on a linker: ttds)

Row | Binder | pKd
7 | QRQARSETLV [HPV59-E6, Q81964] | below the threshold
8 | PRVKPQRSKV [PPP1R13L, Q8WUF5] | below the threshold

Biological target: PDZRN4_1, Q6ZMN7
Sequence (Q6ZMN7 213-318): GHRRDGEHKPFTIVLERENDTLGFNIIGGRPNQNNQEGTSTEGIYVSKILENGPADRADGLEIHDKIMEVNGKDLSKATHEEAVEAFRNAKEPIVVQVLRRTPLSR
Assay: holdup assay
Parameters: key: below the threshold = too weak to quantify, mostly under pKd 3.1 to 4
Conditions: plain residues with an end cap or a label only (N-terminal biotin on a linker: ttds)

Row | Binder | pKd
9 | QRQARSETLV [HPV59-E6, Q81964] | 4.04
10 | PRVKPQRSKV [PPP1R13L, Q8WUF5] | below the threshold

Biological target: DLG4_2, P78352
Sequence (P78352 155-259): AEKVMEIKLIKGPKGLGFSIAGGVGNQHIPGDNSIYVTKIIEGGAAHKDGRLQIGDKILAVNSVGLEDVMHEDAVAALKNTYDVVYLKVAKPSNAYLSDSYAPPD
Assay: holdup assay
Parameters: key: below the threshold = too weak to quantify, mostly under pKd 3.1 to 4
Conditions: plain residues with an end cap or a label only (N-terminal biotin on a linker: ttds)

Row | Binder | pKd
11 | QRQARSETLV [HPV59-E6, Q81964] | 5.45
12 | PRVKPQRSKV [PPP1R13L, Q8WUF5] | below the threshold

Biological target: T3, LNX2_2, Q8N448
T3 sequence (Q8N448 334-432, limits assumed, looked up): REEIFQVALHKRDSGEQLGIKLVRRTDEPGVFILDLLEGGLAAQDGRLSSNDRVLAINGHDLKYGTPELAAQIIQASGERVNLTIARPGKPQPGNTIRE
Assay: holdup assay
Parameters: key: below the threshold = too weak to quantify, mostly under pKd 3.1 to 4
Conditions: plain residues with an end cap or a label only (N-terminal biotin on a linker: ttds)

Row | Binder | pKd
13 | QRQARSETLV [HPV59-E6, Q81964] | 5.04
14 | PRVKPQRSKV [PPP1R13L, Q8WUF5] | below the threshold

Biological target: T4, NHERF3_4, Q5T2W1
T4 sequence (Q5T2W1 373-468, limits assumed, looked up): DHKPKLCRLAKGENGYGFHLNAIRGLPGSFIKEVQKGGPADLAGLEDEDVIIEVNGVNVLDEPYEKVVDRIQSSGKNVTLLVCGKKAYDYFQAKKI
Assay: holdup assay
Parameters: key: below the threshold = too weak to quantify, mostly under pKd 3.1 to 4
Conditions: plain residues with an end cap or a label only (N-terminal biotin on a linker: ttds)

Row | Binder | pKd
15 | QRQARSETLV [HPV59-E6, Q81964] | below the threshold
16 | PRVKPQRSKV [PPP1R13L, Q8WUF5] | below the threshold

Biological target: T5, LIN7C, Q9NUP9
T5 sequence (Q9NUP9 88-185, limits assumed, looked up): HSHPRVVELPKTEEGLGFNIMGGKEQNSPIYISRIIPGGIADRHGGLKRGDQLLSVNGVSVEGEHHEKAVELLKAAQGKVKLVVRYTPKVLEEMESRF
Assay: holdup assay
Parameters: key: below the threshold = too weak to quantify, mostly under pKd 3.1 to 4
Conditions: plain residues with an end cap or a label only (N-terminal biotin on a linker: ttds)

Row | Binder | pKd
17 | QRQARSETLV [HPV59-E6, Q81964] | 3.87
18 | PRVKPQRSKV [PPP1R13L, Q8WUF5] | below the threshold

Biological target: NHERF4_2, Q86UT5
Sequence (Q86UT5 220-308): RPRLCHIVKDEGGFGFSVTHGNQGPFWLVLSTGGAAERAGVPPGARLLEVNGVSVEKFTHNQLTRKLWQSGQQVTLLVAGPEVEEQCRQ
Assay: holdup assay
Parameters: key: below the threshold = too weak to quantify, mostly under pKd 3.1 to 4
Conditions: plain residues with an end cap or a label only (N-terminal biotin on a linker: ttds)

Row | Binder | pKd
19 | QRQARSETLV [HPV59-E6, Q81964] | below the threshold
20 | PRVKPQRSKV [PPP1R13L, Q8WUF5] | below the threshold

Biological target: T6, RHPN1, Q8TCX5
T6 sequence (Q8TCX5 508-602, limits assumed, looked up): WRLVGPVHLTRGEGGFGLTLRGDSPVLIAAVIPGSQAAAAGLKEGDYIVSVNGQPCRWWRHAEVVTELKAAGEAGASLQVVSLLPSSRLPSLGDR
Assay: holdup assay
Parameters: key: below the threshold = too weak to quantify, mostly under pKd 3.1 to 4
Conditions: plain residues with an end cap or a label only (N-terminal biotin on a linker: ttds)

Row | Binder | pKd
21 | QRQARSETLV [HPV59-E6, Q81964] | 3.94
22 | PRVKPQRSKV [PPP1R13L, Q8WUF5] | below the threshold

Biological target: T7, MPP2, Q14168
T7 sequence (Q14168 180-250, limits assumed, looked up): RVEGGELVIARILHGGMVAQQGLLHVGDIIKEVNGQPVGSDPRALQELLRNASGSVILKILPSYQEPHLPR
Assay: holdup assay
Parameters: key: below the threshold = too weak to quantify, mostly under pKd 3.1 to 4
Conditions: plain residues with an end cap or a label only (N-terminal biotin on a linker: ttds)

Row | Binder | pKd
23 | QRQARSETLV [HPV59-E6, Q81964] | below the threshold
24 | PRVKPQRSKV [PPP1R13L, Q8WUF5] | below the threshold

Biological target: FRMPD3, Q5JV73
Sequence (Q5JV73 12-100): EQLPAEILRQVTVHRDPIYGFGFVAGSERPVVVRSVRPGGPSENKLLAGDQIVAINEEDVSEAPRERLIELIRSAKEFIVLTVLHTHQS
Assay: holdup assay
Parameters: key: below the threshold = too weak to quantify, mostly under pKd 3.1 to 4
Conditions: plain residues with an end cap or a label only (N-terminal biotin on a linker: ttds)

Row | Binder | pKd
25 | QRQARSETLV [HPV59-E6, Q81964] | below the threshold
26 | PRVKPQRSKV [PPP1R13L, Q8WUF5] | below the threshold

Biological target: PTPN3, P26045
Sequence (P26045 505-587): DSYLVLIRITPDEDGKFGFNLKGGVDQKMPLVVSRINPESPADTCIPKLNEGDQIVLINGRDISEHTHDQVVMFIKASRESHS
Assay: holdup assay
Parameters: key: below the threshold = too weak to quantify, mostly under pKd 3.1 to 4
Conditions: plain residues with an end cap or a label only (N-terminal biotin on a linker: ttds)

Row | Binder | pKd
27 | QRQARSETLV [HPV59-E6, Q81964] | 4.4
28 | PRVKPQRSKV [PPP1R13L, Q8WUF5] | below the threshold

Biological target: MAGI1_2, Q96QZ7
Sequence (Q96QZ7 456-580): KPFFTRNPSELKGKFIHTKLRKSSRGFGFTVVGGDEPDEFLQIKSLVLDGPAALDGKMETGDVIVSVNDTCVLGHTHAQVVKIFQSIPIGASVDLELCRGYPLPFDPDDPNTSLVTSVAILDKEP
Assay: holdup assay
Parameters: key: below the threshold = too weak to quantify, mostly under pKd 3.1 to 4
Conditions: plain residues with an end cap or a label only (N-terminal biotin on a linker: ttds)

Row | Binder | pKd
29 | QRQARSETLV [HPV59-E6, Q81964] | 6.04
30 | PRVKPQRSKV [PPP1R13L, Q8WUF5] | 3.72

Biological target: MAST1, Q9Y2H9
Sequence (Q9Y2H9 962-1065): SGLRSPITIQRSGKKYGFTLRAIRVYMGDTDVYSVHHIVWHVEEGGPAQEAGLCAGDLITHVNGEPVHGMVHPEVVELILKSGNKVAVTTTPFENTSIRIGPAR
Assay: holdup assay
Parameters: key: below the threshold = too weak to quantify, mostly under pKd 3.1 to 4
Conditions: plain residues with an end cap or a label only (N-terminal biotin on a linker: ttds)

Row | Binder | pKd
31 | QRQARSETLV [HPV59-E6, Q81964] | 4.62
32 | PRVKPQRSKV [PPP1R13L, Q8WUF5] | 3.71

Biological target: T8, SHANK1, Q9Y566
T8 sequence (Q9Y566 658-767, limits assumed, looked up): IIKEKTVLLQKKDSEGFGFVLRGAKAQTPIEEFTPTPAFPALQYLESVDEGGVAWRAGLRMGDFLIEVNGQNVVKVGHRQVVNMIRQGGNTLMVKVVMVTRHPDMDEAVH
Assay: holdup assay
Parameters: key: below the threshold = too weak to quantify, mostly under pKd 3.1 to 4
Conditions: plain residues with an end cap or a label only (N-terminal biotin on a linker: ttds)

Row | Binder | pKd
33 | QRQARSETLV [HPV59-E6, Q81964] | below the threshold
34 | PRVKPQRSKV [PPP1R13L, Q8WUF5] | 3.64

Biological target: GORASP2, Q9H8Y8
Assay: holdup assay
Parameters: key: below the threshold = too weak to quantify, mostly under pKd 3.1 to 4
Conditions: plain residues with an end cap or a label only (N-terminal biotin on a linker: ttds)

Row | Binder | pKd
35 | QRQARSETLV [HPV59-E6, Q81964] | 4.34
36 | PRVKPQRSKV [PPP1R13L, Q8WUF5] | below the threshold

Biological target: T9, DLG3_2, Q92796
T9 sequence (Q92796 221-321, limits assumed, looked up): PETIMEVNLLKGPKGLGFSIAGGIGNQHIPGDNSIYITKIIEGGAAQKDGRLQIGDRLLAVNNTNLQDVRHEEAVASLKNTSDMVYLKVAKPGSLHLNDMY
Assay: holdup assay
Parameters: key: below the threshold = too weak to quantify, mostly under pKd 3.1 to 4
Conditions: plain residues with an end cap or a label only (N-terminal biotin on a linker: ttds)

Row | Binder | pKd
37 | QRQARSETLV [HPV59-E6, Q81964] | 5.17
38 | PRVKPQRSKV [PPP1R13L, Q8WUF5] | 3.73

Biological target: DLG4_1, P78352
Sequence (P78352 62-152): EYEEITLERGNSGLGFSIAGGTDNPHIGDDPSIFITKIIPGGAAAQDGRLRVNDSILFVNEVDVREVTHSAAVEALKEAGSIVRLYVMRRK
Assay: holdup assay
Parameters: key: below the threshold = too weak to quantify, mostly under pKd 3.1 to 4
Conditions: plain residues with an end cap or a label only (N-terminal biotin on a linker: ttds)

Row | Binder | pKd
39 | QRQARSETLV [HPV59-E6, Q81964] | 5.11
40 | PRVKPQRSKV [PPP1R13L, Q8WUF5] | 3.54

Biological target: T10, DFNB31_3, Q9P202
T10 sequence (Q9P202 811-907, limits assumed, looked up): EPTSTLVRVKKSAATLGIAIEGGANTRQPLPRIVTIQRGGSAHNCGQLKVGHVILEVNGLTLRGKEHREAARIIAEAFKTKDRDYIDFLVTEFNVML
Assay: holdup assay
Parameters: key: below the threshold = too weak to quantify, mostly under pKd 3.1 to 4
Conditions: plain residues with an end cap or a label only (N-terminal biotin on a linker: ttds)

Row | Binder | pKd
41 | QRQARSETLV [HPV59-E6, Q81964] | below the threshold
42 | PRVKPQRSKV [PPP1R13L, Q8WUF5] | below the threshold

Biological target: Inadl_8, Q8NI35
Sequence (Q8NI35 1425-1530): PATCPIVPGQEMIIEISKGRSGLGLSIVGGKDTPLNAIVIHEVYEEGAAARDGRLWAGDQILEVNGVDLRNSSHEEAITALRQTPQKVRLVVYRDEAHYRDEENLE
Assay: holdup assay
Parameters: key: below the threshold = too weak to quantify, mostly under pKd 3.1 to 4
Conditions: plain residues with an end cap or a label only (N-terminal biotin on a linker: ttds)

Row | Binder | pKd
43 | QRQARSETLV [HPV59-E6, Q81964] | below the threshold
44 | PRVKPQRSKV [PPP1R13L, Q8WUF5] | 4.35

Biological target: GORASP1, Q9BQQ3
Sequence (Q9BQQ3 1-208): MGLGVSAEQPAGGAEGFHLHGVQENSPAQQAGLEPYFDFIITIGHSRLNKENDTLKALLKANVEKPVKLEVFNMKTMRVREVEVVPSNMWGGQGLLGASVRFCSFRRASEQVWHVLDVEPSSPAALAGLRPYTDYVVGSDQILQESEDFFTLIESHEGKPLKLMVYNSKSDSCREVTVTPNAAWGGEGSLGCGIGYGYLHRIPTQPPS
Assay: holdup assay
Parameters: key: below the threshold = too weak to quantify, mostly under pKd 3.1 to 4
Conditions: plain residues with an end cap or a label only (N-terminal biotin on a linker: ttds)

Row | Binder | pKd
45 | QRQARSETLV [HPV59-E6, Q81964] | below the threshold
46 | PRVKPQRSKV [PPP1R13L, Q8WUF5] | below the threshold

Biological target: T11, SYNJ2BP, P57105
T11 sequence (P57105 8-110, limits assumed, looked up): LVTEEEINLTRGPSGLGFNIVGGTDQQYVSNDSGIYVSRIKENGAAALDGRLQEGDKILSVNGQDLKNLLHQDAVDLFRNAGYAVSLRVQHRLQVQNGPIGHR
Assay: holdup assay
Parameters: key: below the threshold = too weak to quantify, mostly under pKd 3.1 to 4
Conditions: plain residues with an end cap or a label only (N-terminal biotin on a linker: ttds)

Row | Binder | pKd
47 | QRQARSETLV [HPV59-E6, Q81964] | 4.81
48 | PRVKPQRSKV [PPP1R13L, Q8WUF5] | below the threshold

Biological target: TJP1_2, Q07157
Sequence (Q07157 181-274): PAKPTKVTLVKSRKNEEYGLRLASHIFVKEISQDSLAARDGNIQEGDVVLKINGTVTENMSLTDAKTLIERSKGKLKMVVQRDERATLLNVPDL
Assay: holdup assay
Parameters: key: below the threshold = too weak to quantify, mostly under pKd 3.1 to 4
Conditions: plain residues with an end cap or a label only (N-terminal biotin on a linker: ttds)

Row | Binder | pKd
49 | QRQARSETLV [HPV59-E6, Q81964] | below the threshold
50 | PRVKPQRSKV [PPP1R13L, Q8WUF5] | below the threshold

Biological target: SCRIB_1, Q14160
Sequence (Q14160 718-814): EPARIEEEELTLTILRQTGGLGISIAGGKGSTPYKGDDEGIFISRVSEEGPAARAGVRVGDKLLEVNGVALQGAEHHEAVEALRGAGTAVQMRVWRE
Assay: holdup assay
Parameters: key: below the threshold = too weak to quantify, mostly under pKd 3.1 to 4
Conditions: plain residues with an end cap or a label only (N-terminal biotin on a linker: ttds)

Row | Binder | pKd
51 | QRQARSETLV [HPV59-E6, Q81964] | 3.82
52 | PRVKPQRSKV [PPP1R13L, Q8WUF5] | below the threshold

Biological target: MAGI2_3, Q86UL8
Sequence (Q86UL8 600-682): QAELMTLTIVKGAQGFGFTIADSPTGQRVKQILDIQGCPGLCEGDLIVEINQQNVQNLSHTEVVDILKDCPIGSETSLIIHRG
Assay: holdup assay
Parameters: key: below the threshold = too weak to quantify, mostly under pKd 3.1 to 4
Conditions: plain residues with an end cap or a label only (N-terminal biotin on a linker: ttds)

Row | Binder | pKd
53 | QRQARSETLV [HPV59-E6, Q81964] | 4.73
54 | PRVKPQRSKV [PPP1R13L, Q8WUF5] | below the threshold
